# In publication PMC7843029 (Cell, 2021):
# B1: S304 IgG (antibody, V domains shown)
# VH: EVQLVESGGGLVQPGGSLRLSCAASGFTFSSYDMHWVRQTTGKGLEWVSTIGTAGDTYYPDSVKGRFTISREDAKNSLYLQMNSLRAGDTAVYYCARGDSSGYYYYFDYWGQGTLLTVSS
# VL: DIQMTQSPSSLSAAVGDRVTITCRASQSIGSYLNWYQQKPGKAPKLLIYAASSLQSGVPSRFSGSGSGTDFTLTISSLQPEDFAIYYCQQSYVSPTYTFGPGTKVDIK
# notes: copies: 2 + 2
# Target: T1, RBD mouse Fc-tagged antigen (Sino Biological, Cat. No. 40592-V05H) (SARS-CoV-2, UniProt P0DTC2)
# T1 construct: source: bought: Sino Biological
# Assay: ELISA
# Details: both partners purified
binder,measurement,value
B1,binding result,binds
